Measurements taken from patent publication US20230115257A1 (published 2023).

Experiments:
Test in all cases: ELISA
[1] = molecular target: SARS-CoV-2 B.1.1.7 spike protein (SARS-CoV-2 B.1.1.7 (Alpha), UniProt P0DTC2 13-1213)
[2] = molecular target: T1, SARS-CoV-2 P.1 spike protein (SARS-CoV-2 P.1 (Gamma), UniProt P0DTC2 13-1213)
[3] = molecular target: T1, SARS-CoV-2 P.1 spike protein; remark: listed apart in the source

| Binder | IC50 [1] | IC50 [2] | EC50 [3] |
| --- | --- | --- | --- |
| 2-H7-A (antibody, V domains shown) VH: QAYLQQSGAELVRPGASVKMSCKASGYTFTGYTMHWVKQTPRQGLEWIGAIYPENGDTSYNQKFKGKATLTVDKSSSTAYMQLSSLTSEDSAVYFCARDGYDVLYGMDYWGQGTSVTVSS VL: DIVLTQSPASLAVSLGQRATISCRASKSVSTSGYSYMHWYQQKPGQPPKLLIYLASNLESGVPARFSGSGSGTDFTLNIHPVEEEDAATYYCQHSRELPWTFGGGTKLDIK | 9.88 nM | 35.6 nM | – |
| 6-C19-A (antibody, V domains shown) VH: QIQLVQSGPELKKPGETVKISCKASGNTFTTAGMQWVQKMPGKGFKWIGWINTHSGEPKYAEDFKGRFAFSLETSASTAYLQISNLKNEDTATYFCARYGDYYYFDCWGQGTTLTVSS VL: DIQMTQSPASLSASVGETVTITCRASGNIHNYLAWYQQKQGKSPQLLVYNAKTLADGVPSRFSGSGSGTQYSLKINSLQPEDFGSFYCQHFWTTPWSFGGGTKLEIK | – | – | 0.62 nM |
| 1-L10-A (antibody, V domains shown) VH: EVKLEESGGGLVQPGGSMKLSCVASGFTFNNYWMNWVRQSPEKGLEWVAQMRLKSDNYATHYAESVKGRFTISRDDSKSSVYLQMNNLRAEDTGIYYCIEGYWTYWGQGTLVTVSA VL: QIVLTQSPAIMSASLGERVTMTCTASSSVSSSYLHWYQQKPGSSPKLWIYSTSNLASGVPARFSGNGSGTSYSLTISSMEAEDAATYYCLQYHRSPPYTFGGGTKLEIK | 7.82 nM | 11.5 nM | – |
| 6-O12-A (antibody, V domains shown) VH: QVQLQQPGTELVKPGASVKLSCKASGYTFTSYWMHWVKQRPGQGLEWIGNINPSNGGTNYNEKFRSKATLTVDKSSSTAYMQLSSLTSEDSAVYYCARLGWFLPLGSWGQGTTLTVSS VL: QIVLTQSPAIMSASLGEVITLTCSASSSVSYMHWYQQKSGTSPKLLIYSTSNLASGVPSRFSGSGSGTFYSLTISSVEAEDAADYYCHQWSGYMYTFGGGTKLEIK | 7.05 nM | 8.01 nM | – |
| 10-J24-A (antibody, V domains shown) VH: EVQLVESGGGLVKPGGSLKLSCAASGFTFSSYAMSWVRQNPAKRLEWVATISGGGGFTYYPDSVKGRFTISRDNAKNTLYLQMNSLRSEDTAMYYCARDEDGKHDYFDYWGQGTTLTVSS VL: DIVMTQSHKFMSTSVGDRVSITCKASQDVGTAVAWYQQKPGQSPKLLIYWASTRHTGVPDRFTGSGSGTDFTLTISNVQSEDLADYFCQQYASYPLTFGGGTKLVIK | – | – | 16.1 nM |
| 8-H5-A (antibody, V domains shown) VH: QVTLKESGPGILQSSQTLSLTCSLSGFSLSTSGMGVSWVRQPSGKGLEWLAHIYWDDDKRYTPSLKSRLTISTDSSRKQVFLKITSVDTADTATYYCARRDLHDYDGWFAYWGQGTLVTVSA VL: DIVMTQSQKFMSTAVGDRVSVTCKASQNVGTNVAWYQQKPGQSPKALIYSASFRYSGVPDRFSGSGSGTDFTLTISNVQSEDLAEYFCQQYNSYPLTFGSGTKLEIK | 15.4 nM | 30.5 nM | – |
| 4-N22-A (antibody, V domains shown) VH: QVQLQQPGTELVKPGASVKLSCKASGYTFTNYWMYWVKQRPGQGLDWIGNINPSNGGTNYNEKFKSKATLTVDKSSSTAYMQLSSLTSEDSAVYYCARETGNYWGQGTTLTVSS VL: DILMTQSPSSMSVSLGDTVSISCHASQGISSNIGWLQQKPGKSFKGLIYHGTNLEDGVPSRFSGSGSGADYSLTISSLESEDFADYYCVQYAQFPYTFGGGTKLEIK | 1.51 nM | 17.2 nM | – |
| 2-G20-A (antibody, V domains shown) VH: EVQLQQSGPELVKPGASVKMSCKASGYTFPSYVLHWVKQKPGQGLEWIGYIYPYNDGTNYNEKFKGKATLTSDKSSSTAYMELSSLTSEDSAVYYCARGDYGDSAWFPYWGQGTLVTVSA VL: DIVLTQSPASLAVSLGQRATISCRASKSVSTSGYSYMHWYQQKPGQPPKLLIYLASNLKSGVPARFSGGGSGTDFTLNIHPVEEEDAATYYCQLSRELPWTFGGGTKLEIK | 19.2 nM | 18.9 nM | – |
| 9-L13-A (antibody, V domains shown) VH: QVQLKESGPGLVAPSQSLSITCTVSGFSLTSYAISWVRQPPGKGLEWLGLIWTGGGTNYNSALKSRLSISKDNSKSQIFLKMNSLQTDDTARYYCARGPPLIYYGDLYYFDYWGQGTTLTVSS VL: DIQMTQSPSSLSASLGGKVTITCKASQDINKYIAWYQHKPGKGPRLLIHYTSTLQPGIPSRFSGSGSGRDYSFSISNLEPEDIATYYCLQYDNLWTFGGGTKLEIK | 65.3 nM | – | – |
| 4-C22-A (antibody, V domains shown) VH: EVQLVESGGDLVKPGGSLKLSCAASGFTFSSFGMSWVRQTPDKRLEWVATISSGGGFTYYPDSVEGRFTISRDNAKNTLYLQMSSLKSEDTAMYYCARRLYDYDWFAYWGQGTLVTVSA VL: DIVMTQSHKIMSTSVGDRVSITCKASQDVVTAVAWYQKKPGQSPKLLIHWASTRHTGVPDRFTGSGSGTDFTLTISNVQSEDLADYFCQQYSSYPLTFGAGTKLELK | – | – | 1.44 nM |
| 4-M3-A (antibody, V domains shown) VH: EVQLQQSGPELVKPGDSVKISCKASGYSFTGYFMNWVMQSHGKSLEWIGRINPNNGETFYNQKFKGKATLTVDKSSDTAHMELRSLTSEDSAVYYCARGGTGTGWGQGTTLTVSS VL: DILMTQSPSSMSVSLGDTVSITCHASQGISSNIGWLQQKPGKSFKGLIYYGTNLEDGVPSRFSGSGSGADYSLTISSLESEDLADYYCIQYAQFPYTFGGGTKLEIK | 4.98 nM | 13.5 nM | – |
| 4-L4-A (antibody, V domains shown) VH: QAYLQQSGAELVRPGASVKMSCKASGYTFTSYTVHWVKQTPRQGLEWIGGIYPGNVDTSYNQNFKGKATLTVDKSSSTAYMQLSSLTSEDSAVYFCARDGYYAMDYWGQGTSVTVSS VL: not shown | 31.6 nM | 28.2 nM | – |
| 2-O12-A (antibody, V domains shown) VH: EVQLQQSGPELVKPGASVKISCKASGYTFTDYYMNWVKQSHGKSLEWIGDINSNNGGTTYDQKFKGKATLTVDRSSSTAYMELRSLTSEDSAVYYCARRGDGHFGGFTYWGQGTLVTVSA VL: not shown | 87.6 nM | – | – |
